From the MegaScale stability set (Tsuboyama et al. 2023)

B1: HEEH_KT_rd6_3546 (parent)
chain: SEEDKEREHWERLNRDFELRVLDTTFIAHHAEEVIKLLRWLEK

Variants of: B1
Experiment: folding stability dG (cDNA display proteolysis); higher = more stable
Settings: PBS, room temperature

| Variant | folding stability dG [kcal/mol] |
| --- | --- |
| SEEDAEREHWERLNRDFELRVLDTTFIAHHAEEVIKLLRWLEK [K5A] | 1.39 |
| SEENKEREHWERLNRDFELRVLDTTFIAHHAEEVIKLLRWLEK [D4N] | 1.44 |
| SEEEKEREHWERLNRDFELRVLDTTFIAHHAEEVIKLLRWLEK [D4E] | 1.56 |
| SEEWKEREHWERLNRDFELRVLDTTFIAHHAEEVIKLLRWLEK [D4W] | 1.45 |
| SEESKEREHWERLNRDFELRVLDTTFIAHHAEEVIKLLRWLEK [D4S] | 1.29 |
| SEEYKEREHWERLNRDFELRVLDTTFIAHHAEEVIKLLRWLEK [D4Y] | 1.37 |
| SEEGKEREHWERLNRDFELRVLDTTFIAHHAEEVIKLLRWLEK [D4G] | 1.28 |
| SEEPKEREHWERLNRDFELRVLDTTFIAHHAEEVIKLLRWLEK [D4P] | 1.38 |
| SEEHKEREHWERLNRDFELRVLDTTFIAHHAEEVIKLLRWLEK [D4H] | 1.41 |
| SEEMKEREHWERLNRDFELRVLDTTFIAHHAEEVIKLLRWLEK [D4M] | 1.42 |
| SEEIKEREHWERLNRDFELRVLDTTFIAHHAEEVIKLLRWLEK [D4I] | 1.4 |
| SEECKEREHWERLNRDFELRVLDTTFIAHHAEEVIKLLRWLEK [D4C] | 2.16 |
| SEEFKEREHWERLNRDFELRVLDTTFIAHHAEEVIKLLRWLEK [D4F] | 1.46 |
| SEEQKEREHWERLNRDFELRVLDTTFIAHHAEEVIKLLRWLEK [D4Q] | 1.42 |
| SEETKEREHWERLNRDFELRVLDTTFIAHHAEEVIKLLRWLEK [D4T] | 1.42 |
| SEERKEREHWERLNRDFELRVLDTTFIAHHAEEVIKLLRWLEK [D4R] | 1.39 |
| SEELKEREHWERLNRDFELRVLDTTFIAHHAEEVIKLLRWLEK [D4L] | 1.53 |
| SEEKKEREHWERLNRDFELRVLDTTFIAHHAEEVIKLLRWLEK [D4K] | 1.41 |
| SEEVKEREHWERLNRDFELRVLDTTFIAHHAEEVIKLLRWLEK [D4V] | 1.3 |
| SEEAKEREHWERLNRDFELRVLDTTFIAHHAEEVIKLLRWLEK [D4A] | 1.38 |
| LEEDKEREHWERLNRDFELRVLDTTFIAHHAEEVIKLLRWLEK [S1L] | 1.35 |
| QEEDKEREHWERLNRDFELRVLDTTFIAHHAEEVIKLLRWLEK [S1Q] | 1.5 |
| PEEDKEREHWERLNRDFELRVLDTTFIAHHAEEVIKLLRWLEK [S1P] | 1.43 |
| MEEDKEREHWERLNRDFELRVLDTTFIAHHAEEVIKLLRWLEK [S1M] | 0.916 |
| EEEDKEREHWERLNRDFELRVLDTTFIAHHAEEVIKLLRWLEK [S1E] | 1.19 |
| FEEDKEREHWERLNRDFELRVLDTTFIAHHAEEVIKLLRWLEK [S1F] | 1.13 |

| Variant | folding stability dG [kcal/mol] |
| --- | --- |
| NEEDKEREHWERLNRDFELRVLDTTFIAHHAEEVIKLLRWLEK [S1N] | 1.3 |
| CEEDKEREHWERLNRDFELRVLDTTFIAHHAEEVIKLLRWLEK [S1C] | 2.12 |
| DEEDKEREHWERLNRDFELRVLDTTFIAHHAEEVIKLLRWLEK [S1D] | 1.36 |
| TEEDKEREHWERLNRDFELRVLDTTFIAHHAEEVIKLLRWLEK [S1T] | 1.4 |
| IEEDKEREHWERLNRDFELRVLDTTFIAHHAEEVIKLLRWLEK [S1I] | 1.22 |
| YEEDKEREHWERLNRDFELRVLDTTFIAHHAEEVIKLLRWLEK [S1Y] | 1.27 |
| HEEDKEREHWERLNRDFELRVLDTTFIAHHAEEVIKLLRWLEK [S1H] | 1.35 |
| VEEDKEREHWERLNRDFELRVLDTTFIAHHAEEVIKLLRWLEK [S1V] | 1.31 |
| GEEDKEREHWERLNRDFELRVLDTTFIAHHAEEVIKLLRWLEK [S1G] | 1.51 |
| WEEDKEREHWERLNRDFELRVLDTTFIAHHAEEVIKLLRWLEK [S1W] | 1.16 |
| AEEDKEREHWERLNRDFELRVLDTTFIAHHAEEVIKLLRWLEK [S1A] | 1.28 |
| KEEDKEREHWERLNRDFELRVLDTTFIAHHAEEVIKLLRWLEK [S1K] | 1.18 |
| REEDKEREHWERLNRDFELRVLDTTFIAHHAEEVIKLLRWLEK [S1R] | 1.36 |
| SPEDKEREHWERLNRDFELRVLDTTFIAHHAEEVIKLLRWLEK [E2P] | 1.34 |
| SWEDKEREHWERLNRDFELRVLDTTFIAHHAEEVIKLLRWLEK [E2W] | 1.57 |
| SAEDKEREHWERLNRDFELRVLDTTFIAHHAEEVIKLLRWLEK [E2A] | 1.48 |
| SHEDKEREHWERLNRDFELRVLDTTFIAHHAEEVIKLLRWLEK [E2H] | 1.42 |
| SLEDKEREHWERLNRDFELRVLDTTFIAHHAEEVIKLLRWLEK [E2L] | 1.53 |
| SFEDKEREHWERLNRDFELRVLDTTFIAHHAEEVIKLLRWLEK [E2F] | 1.36 |
| SQEDKEREHWERLNRDFELRVLDTTFIAHHAEEVIKLLRWLEK [E2Q] | 1.62 |
| SKEDKEREHWERLNRDFELRVLDTTFIAHHAEEVIKLLRWLEK [E2K] | 1.45 |
| SGEDKEREHWERLNRDFELRVLDTTFIAHHAEEVIKLLRWLEK [E2G] | 1.57 |
| SREDKEREHWERLNRDFELRVLDTTFIAHHAEEVIKLLRWLEK [E2R] | 1.61 |
| STEDKEREHWERLNRDFELRVLDTTFIAHHAEEVIKLLRWLEK [E2T] | 1.48 |
| SVEDKEREHWERLNRDFELRVLDTTFIAHHAEEVIKLLRWLEK [E2V] | 1.45 |
| SDEDKEREHWERLNRDFELRVLDTTFIAHHAEEVIKLLRWLEK [E2D] | 1.44 |
